According to US9215869 (UNIVERSITY OF GEORGIA RESEARCH FOUNDATION, dated 2015):

Experiments:
[1] = biological target: Cry11Ba toxin, trypsin-activated (Bacillus thuringiensis jegathesan) (Bacillus thuringiensis jegathesan) (UniProt Q45730); assay: cell-based or functional assay
[2] = biological target: Cry11Ba toxin, trypsin-activated (Bacillus thuringiensis jegathesan) (Bacillus thuringiensis jegathesan) (UniProt Q45730); assay: 125I-Cry11Ba binding to An. gambiae BBMV with 10 µM competitor peptide
[3] = biological target: brush border membrane vesicles (BBMV) of Anopheles gambiae 4th instar larvae (Anopheles gambiae); assay: 2.5 nM 125I-Cry11Ba on 8 µg An. gambiae BBMV, no competitor
[4] = biological target: brush border membrane vesicles (BBMV) of Anopheles gambiae 4th instar larvae (Anopheles gambiae); assay: 125I-Cry11Ba binding to An. gambiae BBMV in the presence of 10 µM AgAPN2tb, against no peptide
[5] = biological target: brush border membrane vesicles (BBMV) of Anopheles gambiae 4th instar larvae (Anopheles gambiae); assay: 125I-Cry11Ba binding to An. gambiae BBMV in the presence of 10 µM AgAPN2tb/Del1, against no peptide
[6] = biological target: brush border membrane vesicles (BBMV) of Anopheles gambiae 4th instar larvae (Anopheles gambiae); assay: 125I-Cry11Ba binding to An. gambiae BBMV in the presence of 10 µM AgAPN2tb/Del3, against no peptide
[7] = biological target: T1, Cry11Ba toxin, trypsin-activated (Bacillus thuringiensis jegathesan) (Bacillus thuringiensis jegathesan, UniProt Q45730 29-647, 125I-labelled (chloramine-T) in the BBMV binding assays; unlabelled when coated on microtiter plates); assay: saturation ELISA, biotinylated peptide on plates coated with trypsinized Cry11Ba, one-site fit
T1 construct: also called trypsinized Cry11Ba; trypsinated Cry11Ba
T1 sequence (Q45730 29-647 limits assumed): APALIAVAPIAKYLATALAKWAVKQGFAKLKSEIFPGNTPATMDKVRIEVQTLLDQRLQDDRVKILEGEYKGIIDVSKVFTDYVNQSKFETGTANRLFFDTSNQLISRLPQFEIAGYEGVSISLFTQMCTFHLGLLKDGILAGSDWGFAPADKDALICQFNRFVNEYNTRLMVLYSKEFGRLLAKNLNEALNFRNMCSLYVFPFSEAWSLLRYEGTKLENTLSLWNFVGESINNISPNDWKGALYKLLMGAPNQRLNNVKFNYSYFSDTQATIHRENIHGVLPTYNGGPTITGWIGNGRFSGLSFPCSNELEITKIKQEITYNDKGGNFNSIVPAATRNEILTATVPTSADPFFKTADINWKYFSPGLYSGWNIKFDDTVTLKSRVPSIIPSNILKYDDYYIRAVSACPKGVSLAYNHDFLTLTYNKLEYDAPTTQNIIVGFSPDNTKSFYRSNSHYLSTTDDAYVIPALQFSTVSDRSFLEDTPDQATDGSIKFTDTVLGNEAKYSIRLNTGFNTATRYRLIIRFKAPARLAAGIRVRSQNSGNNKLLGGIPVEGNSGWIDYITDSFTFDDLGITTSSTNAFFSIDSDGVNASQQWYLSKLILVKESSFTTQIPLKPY

Cry11Ba toxin, trypsin-activated (Bacillus thuringiensis jegathesan) (from UniProt Q45730 29-647) (ligand), sequence (Q45730 29-647 limits assumed): as above
Cry11Ba toxin, trypsin-activated (Bacillus thuringiensis jegathesan) (Bacillus thuringiensis jegathesan), sequence (Q45730 29-647 limits assumed): as above

| Molecule | larval mortality with Cry11Ba plus peptide inclusion bodies (1:100), 24 h [1] [%] | toxin bound to BBMV in presence of the competitor [2] [fmol] | Kd [7] [nM] | further results |
| --- | --- | --- | --- | --- |
| AgAPN2ta/Del2 (AgAPN2ta with a middle 10-kDa segment deleted) (receptor) | 8.8 | 20.6 |  |  |
| AgAPN2ta/Del3 (AgAPN2ta with the third 10-kDa segment deleted) (receptor) | 5 | 19.5 |  |  |
| Cry11Ba toxin, trypsin-activated (Bacillus thuringiensis jegathesan) (from UniProt Q45730 29-647) (ligand) |  |  |  | toxin bound [3]: 27.9 fmol; percent increase of Cry11Ba binding to BBMV [4]: 24%; percent increase of Cry11Ba binding to BBMV [5]: 62%; percent increase of Cry11Ba binding to BBMV [6]: 45% |
| AgAPN2tb, 28-kDa fragment of Anopheles gambiae aminopeptidase N AgAPN2 (residues 591-843 of SEQ ID NO:2) (receptor, biotinylated when used as probe, Expressed in E. coli as inclusion bodies, solubilized in 8M urea, Ni-purified and dialyzed; An N-terminal Met from the NdeI site is implied by the primers; also called AgAPN2b; biotin-AgAPN2tb; not shown: C-terminal vector-derived His tag (pET-30a(+), NdeI/XhoI; purified on Ni2+ column)) GKISKALHSEGFGGIHVLNRAQIVDDLFNLARGDVVPYGTALEILEYLKEETEYAPWLAAVNGLTTLSRRIHADDEKLFTAHILDIFSKAYDIVKFQAPTATERRIFTYMRQNVLQWACNYGHEECSKAAVAEFHRYHQNPSVKVHPDLRQVVYCEGIRKGSTEEFEFLWNQYLTTNVATEQILILQGLGCVSSSELITDMLNGIASPHVRSQDKNNAFTYVINNPYTLPHVSRYLQQNHANWAASHGSYTNV |  |  | 26.4 |  |
| AgAPN2ta, 30-kDa fragment of Anopheles gambiae aminopeptidase N AgAPN2 (residues 336-590 of SEQ ID NO:2) (receptor, biotinylated when used as probe, Expressed in E. coli as inclusion bodies, solubilized in 8M urea, Ni-purified and dialyzed; An N-terminal Met from the NdeI site is implied by the primers; also called AgAPN2a; -2a; not shown: C-terminal vector-derived His tag (pET-30a(+), NdeI/XhoI; purified on Ni2+ column)) STSMQQHRIAAVISHEIAHQWFGDLVTCEWWDVTWLNEGFARYYQYYGTALVETEWDLDHQFVVEQLQGVMQMDSLRSTHPMTHPVYTQAQTSGIFDNISYNKGAVMLRMMEHYLTTETFKTALRAYIKDRAFKTTRPEDLFNALNRYDPNARSYMEPWTVQPGYPLVTVTSHDTGFTITQKRFLVNEPDHNEQTAWPLPITFATKASEFSITRPAFYTGMTFEIPMQGASDVEYFILNNQQVGYYRVNYDAILW |  |  | 16.7 |  |
